Measurements from article PMC2914686.

Substrate: C[S+](CC[C@H](N)C(=O)[O-])C[C@H]1O[C@@H](n2cnc3c(N)ncnc32)[C@H](O)[C@@H]1O
Assay: Michaelis-Menten kinetics
Assay type: biochemical, Homo sapiens

B1: G9a (Homo sapiens) (protein)
chain: NRAIRTEKIICRDVARGYENVPIPCVNGVDGEPCPEDYKYISENCETSTMNIDRNITHLQHCTCVDDCSSSNCLCGQLSIRCWYDKDGRLLQEFNKIEPPLIFECNQACSCWRNCKNRVVQSGIKVRLQLYRTAKMGWGVRALQTIPQGTFICEYVGELISDAEADVREDDSYLFDLDNKDGEVYCIDARYYGNISRFINHLCDPNIIPVRVFMLHQDLRFPRIAFFSSRDIRTGEELGFDYGDRFWDIKSKYFTCQCGSEKCKHSAEAIALEQSRLARLD
In the case of B1, the Km is reported as 31.7 µM.
